This is an account of results in the nanobody polyreactivity screen of Harvey et al. (2022).

This series can be described thus: yeast display, Sf9 membrane polyspecificity reagent, FACS + sequencing; frameworks hold sequencing errors. In a few lines: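 Polyreactivity labels are assigned by the sorting gate from which each nanobody was recovered. The gates were low and high (top ~1%), set on anti-HA fluorescence for expression and streptavidin fluorescence for reagent binding. Before sorting, galactose-induced (36–48 hours) yeast display cells were stained for 1 hour at 4 °C with 10% biotinylated, detergent-solubilized Sf9 membrane reagent.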
As for “QVQLVESGGGLVQAGGSLRLSCAASGFTFGIYAMGWYRQAPGKERELVADISSGGSTYYADSVKGRFTISRDNAKNTVYLQMNSLKPEDTAVYYCARDSWWYHHYDYWGQGTQVTVSS”, the “polyreactivity (PSR sort gate)” value is reported as “low polyreactivity”.
For “QVQLVESGGGLVQAGGSLRLSCAASGFTFGIYDMGWYRQAPGKERELVAAISWRGVSTYYADSVKGRFRISRDNAKNTVYLQMNSLKPEDTAVYYCNAVDTDGDLYPINYPYDYGYDYWGQGTQVTVSS”, the “polyreactivity (PSR sort gate)” value is on record as “low polyreactivity”.
As for “QVQLVESGGGLVQAGGSLRLSCAASGFTFGKYAMGWYRQAPGKERELVAAITWSGGRTYYADSVKGRFTISRDNAKNTVYLQMNSLKPEDTAVYYCNKVYLYSSLARPYDYWGQGTQVTVSS”, the entry is “high polyreactivity”; as for “QVQLVESGGGLVQAGGSLRLSCAASGFTFGNNAMGWYRQAPGKERELVAAISKRGSSTYYADSVKGRFTISRDNAKNTVYLQMNSLKPEDTAVYYCAAPRSRSRTSRFDYWGQGTQVTVSS”, “high polyreactivity”.
As for “QVQLVESGGGLVQAGGSLRLSCAASGFTFGNNGMGWYRQAPGKERELVASISGGGDSTYYADSVKGRFTISRDNAKYTVYLQMNSLKREDTAVYYCAADYRQEPGYTGYYYWGQGTQVTVSS”, the entry is “low polyreactivity”; as for “QVQLVESGGGLVQAGGSLRLSCAASGFTFGQYVMGWYRQAPGKERELVAAISFSGGSTYYADSVKGRFTISRDNAKNTVSVQMTSLKPEDTAVYYCAADVNVLYLLRFSHRSNYGYWGQGTQVTVSS”, “high polyreactivity”.
As for “QVQLVESGGGLVQAGGSLRLSCAASGFTFGRKALGWYRQAPGKERELVAAISSSEHFYVRRLLKGRFTISRENAKNTVYLQMNSLKPEDTAVYYCATDNSGEVEYWGQGTQVTVSS”, the entry is “high polyreactivity”; as for “QVQLVESGGGLVQAGGSLRLSCAASGFTFGRNAMGWYRQAPGKERELVAAISRGGSTYYADSVKGRFTISRDNAKNTVYLQMNSLKPEDTAVYYCAAETFLKPQYFKKFGYWGQGTQVTVSS”, “high polyreactivity”.
Consider “QVQLVESGGGLVQAGGSLRLSCAASGFTFGRNTMGWYRQAPGKERELVAAIDSGGNTYADSVKGRFTISRDNAKNTVYLQMNSLKPEDTAVYYCAVDVGEFSSYGYWGQGTQVTVSS”, for which the “polyreactivity (PSR sort gate)” value is given as “low polyreactivity”.
The same measure for “QVQLVESGGGLVQAGGSLRLSCAASGFTFGRNVIGWYRQAPGKERELVAAISLSGGSTYYADSVKGRFTISRDNAKNTVYLQMNSLKPEDTAVYYCAAGYITWYDYWGQGTQVTVSS”: “high polyreactivity”.
As for “QVQLVESGGGLVQAGGSLRLSCAASGFTFGRYAMGWYRQAPGKEREFVAAITWSGGGTYYADSVKGRFTISRDNAKYTVYLQMYSLKPEDTAVYYCAADRRAYGGGYWGQGTQVTVSS”, the entry is “high polyreactivity”; as for “QVQLVESGGGLVQAGGSLRLSCAASGFTFGRYAMGWYRQAPGKERELVAAISFSGGRTYYADSVKGRFTISRDNAKNTVYLQMNSLKPEDTAVYYCAARRRQEHVGRSSYARYDYWGQGTQVTVSS”, “high polyreactivity”; as for “QVQLVESGGGLVQAGGSLRLSCAASGFTFGRYAMGWYRQAPGKERELVASISRSGGSTNYADSVKGRFTISRDNAKNTVYLQMNSLKPEDTAVYYCAAVKGRRYDYWGQGTQVTVSS”, “high polyreactivity”.
The same measure for “QVQLVESGGGLVQAGGSLRLSCAASGFTFGRYAMGWYRQAPGKERELVATISRSGGRTYYADSVKGRFTISRDIAKKTVYLQMNSLKPEDTAVYYCAADTRNYPRYDYWGQGTQVTVSS”: “high polyreactivity”; for “QVQLVESGGGLVQAGGSLRLSCAASGFTFGRYAMGWYRQAPGKERELVATITRTGSTNYADSVKGRFTISRDNAKNTVYLQMNSLKPEDTAVYYCNAGPDRRVSYYRLLDHWGQGTQVTASS”: “low polyreactivity”.
For the sequence “QVQLVESGGGLVQAGGSLRLSCAASGFTFGRYAMGWYRQAPGKERELVATITRTGSTNYADSVKGRFTISRDNAKNTVYLQMNSLKPEDTAVYYCNAGPDRRVSYYRLLDHWGQGTQVTVSS”, the “polyreactivity (PSR sort gate)” value is given as “low polyreactivity”.
As for “QVQLVESGGGLVQAGGSLRLSCAASGFTFGSNAMGWYRQAPGKEREFVAAISGSGDRTYYADSVKGRFTISRDNAKNTVYLQMNSLKPEDTAVYYCATSVRQNYFYSYDDWGQGTQVTVSS”, the entry is “high polyreactivity”.
The same measure for “QVQLVESGGGLVQAGGSLRLSCAASGFTFGSNAMGWYRQAPGKEREFVATITKSGGRTYYADSVKGRFTISRDNAKNTVYFQMNSLKPEDTAVYYCAVALSYRTYRKDDYWGQGTQVTVSS”: “high polyreactivity”.
As for “QVQLVESGGGLVQAGGSLRLSCAASGFTFGSNAMGWYRQAPGKERELVAAINYSGVRTYYADSVKGRFTISRDNAKNTVYLQMNSLKPEDTAVSYCAKKRSKPISFDYWGQGTQVTVSS”, the entry is “high polyreactivity”; as for “QVQLVESGGGLVQAGGSLRLSCAASGFTFGSNAMGWYRQAPGKERELVAAIRSRGGSTYYADSVKGRFTISRDNAKNTVYLQMNSLKPEDTAVYYCAADFIGRDYDYWGQGTQVTVSS”, “high polyreactivity”; as for “QVQLVESGGGLVQAGGSLRLSCAASGFTFGSNAMGWYRQAPGKERELVAAISSTGSTYYADSVKGRFTISRDNAKNTVYLQMNSLKPEDTAVYYCNADSDTPRYDYWGQGTQVTVSS”, “low polyreactivity”.
For the sequence “QVQLVESGGGLVQAGGSLRLSCAASGFTFGSNTMGWYRQAPGKERELVAVITWSGGSTYYADSVKGRFTISRDYAKNTVYLQMNSLKPEDTAVYSCAAEATSPLTWFDYWGQGTQVTVSS”, the “polyreactivity (PSR sort gate)” value was “low polyreactivity”.
For the sequence “QVQLVESGGGLVQAGGSLRLSCAASGFTFGSYAMGWYRPAPGKERELVAGISRGGSTNYADSVKGRFTISRDNAKNTVYLQMNSLKPEDTAVYYCAAYVIGPDQFIYDYWGQGTQVTVSS”, the “polyreactivity (PSR sort gate)” value was “low polyreactivity”.
The same measure for “QVQLVESGGGLVQAGGSLRLSCAASGFTFGSYAMGWYRQAPGKERELVAAISGRGGSTYYADSVKGRFTISRDNAKNTVYLQMNSLKPEDTAVYYCATDYSRTFDYWGQGTQVTVSS”: “high polyreactivity”; for “QVQLVESGGGLVQAGGSLRLSCAASGFTFGSYAMGWYRQAPGKERELVAAITRSGGGTYYADSVKGRFTISRDNAKNTVYLQMNSLKPEDTSVYYCAAGALQRGVYGFGYWGQGTQVTVSS”: “high polyreactivity”; for “QVQLVESGGGLVQAGGSLRLSCAASGFTFGSYAMGWYRQAPGKERELVAGISRGGSTNYADSVKGRFTISRDNAKNTVYLQMNSLKPEDTAVYYCAARAVYVADTGATPAGYDYWGQGTQVTVSS”: “low polyreactivity”.
Consider “QVQLVESGGGLVQAGGSLRLSCAASGFTFGTYAMGCYRPAPGKERELVAAISKRGGSTYYADSVKGRFTISRDNAKNTVYLQMNSLKPEDTAVYYCAATRPYSHRDYFYWGQGTQVSVSS”, for which the “polyreactivity (PSR sort gate)” value was “high polyreactivity”.
As for “QVQLVESGGGLVQAGGSLRLSCAASGFTFGTYAMGWYRQAPGKERELVARISRRSGSTYYADSVKGRFTISRDKAKNTVYLQMNSLKPEDTAVYYCAADSRAKRYYWGQGTQVTVSS”, the “polyreactivity (PSR sort gate)” value is reported as “high polyreactivity”.
In the case of “QVQLVESGGGLVQAGGSLRLSCAASGFTFGVYAMGWYRQAPGKERELVAAITATGGSTYYADSVKGRFTISRDNAKNTVYLQMNSLKPADTEVYYCAKPDYYRMGYWVQGTQVTVSS”, the “polyreactivity (PSR sort gate)” value is “low polyreactivity”.
As for “QVQLVESGGGLVQAGGSLRLSCAASGFTFGWYAMGWYRQAPGKERELVAAISRRGGTTYYADSVKGRFTISRDNAKNTVYLQMNSLKPEDTAVYYCAATSYTYVLSPYRGDYWGQGTQVTVSS”, the entry is “high polyreactivity”; as for “QVQLVESGGGLVQAGGSLRLSCAASGFTFGWYAMGWYRQAPGKERELVASISWSGSTTYYADSVKGRFTISRDNAKNTVYLQMNSLKPEDTAVYYCNARRSYVRNDFDYWGQGTQVTVSS”, “high polyreactivity”.
The same measure for “QVQLVESGGGLVQAGGSLRLSCAASGFTFGWYAMGWYRQAPGKERELVATISWSGSSTYYADSVKGRFTISRDNAKNTVYLQMNSLKPEDTAVYYCNAVYGRFVVLRYDYWGQGTQVTVSS”: “high polyreactivity”; for “QVQLVESGGGLVQAGGSLRLSCAASGFTFGWYDMGWYRQAPGKERELVASISWSGSSTYYADSVKGRFTISRDNAKNTVYLQMNSLKPEDTAVYYCATPYWRRYDYWGQGTQVTVSS”: “high polyreactivity”; for “QVQLVESGGGLVQAGGSLRLSCAASGFTFGYYAMGWYRQAPGKEREFVARISWSGDSTYYADSVKGRFTISRDNAKNTVYLQMNSLKPEDTSVYYCAAVVQTSWGKWNDYWGPGTQVTVSS”: “high polyreactivity”.
The same measure for “QVQLVESGGGLVQAGGSLRLSCAASGFTFGYYAMGWYRQAPGKERELVAAIRSSGGSTYYADSVKGRFTISRDNAKNTVYLQMNSLKPEDTAVYYCAVLYGYRSSSRYGYDSWGQGTQVTVSS”: “high polyreactivity”; for “QVQLVESGGGLVQAGGSLRLSCAASGFTFGYYAMGWYRQAPGKERELVAAISKRGGSTYYADSVKGRFTISRDNAKNTVYLQMNSLKPEDTAVYYCATRYTGYPFYGYDYWGQGTQVTVSS”: “high polyreactivity”; for “QVQLVESGGGLVQAGGSLRLSCAASGFTFGYYAMGWYRQAPGKERELVAAITGSGGSTYYADSVKGRFTISRDNAKNTVYLQMNSLKPEDTAVYYCAADKAVYRGSPKNRSPYYYWGQGTQVTVSS”: “high polyreactivity”.
In the case of “QVQLVESGGGLVQAGGSLRLSCAASGFTFGYYSMGWYSQAPGKERELVAAISSGGNTNYADSVKGRFTISRDNAKNTVYLQMNSLKPEDTAVYYCNSRSWRYYKTYSAFNYWGQGTQVTVSS”, the “polyreactivity (PSR sort gate)” value is on record as “high polyreactivity”.
As for “QVQLVESGGGLVQAGGSLRLSCAASGFTFGYYVRGWYRQAPGKERELVAAITSGGSTYYADSVKGRFTISRDNAKNTVYLQMNSLKPEDTAVYYCAAFLGATYYYWGQGTQVTVSS”, the entry is “high polyreactivity”; as for “QVQLVESGGGLVQAGGSLRLSCAASGFTFHDYAMGWYRQAPGKERELVAAITKSGGRTYYADSVKGRFTISRDNAKNTVYLQMNSLKPEDTAVYYCNAVTLRRIYSNPEYDSWGQGTQVTVSS”, “high polyreactivity”.
Take “QVQLVESGGGLVQAGGSLRLSCAASGFTFHGNAMGWYRQAPGKERELVAVISSSGASTYYADSVKGRFTISRDNAKNTVYLQMNSLKPEDTAVYYCAKVSSPLLYVSSDYDYWGQGTQVTVSS”: the “polyreactivity (PSR sort gate)” value is reported as “high polyreactivity”.
